Laboratory results published in US20130065819.

How the values were obtained:
[1] = target: N-terminal FLAG tagged TOE1 mutant D373A
[2] = target: N-terminal FLAG tagged TOE1 mutant D195A
[3] = target: N-terminal FLAG tagged TOE1 mutant D363A
[4] = target: TOE1 mutated at the ExPASy-predicted caspase-1 cleavage site FTAD (position 214-217)
[5] = target: N-terminal FLAG tagged TOE1 mutant D282A
[6] = target: human TOE1 (Target of Egr1)

B1: recombinant caspase-1 (Calbiochem) (protein)
chain: NPAMPTSSGSEGNVKLCSLEEAQRIWKQKSAEIYPIMDKSSRTRLALIICNEEFDSIPRRTGAEVDITGMTMLLQNLGYSVDVKKNLTASDMTTELEAFAHRPEHKTSDSTFLVFMSHGIREGICGKKHSEQVPDILQLNAIFNMLNTKNCPSLKDKPKVIIIQACRGDSPGVVWFKDSVGVSGNLSLPTTEEFEDDAIKKAHIEKDFIAFCSSTPDNVSWRHPTMGSVFIGRLIEHMQEYACSCDVEEIFRKVRFSFEQPDGRAQMPTTERVTLTRCFYLFPGH
in vitro caspase-1 cleavage of immunoprecipitated mutant, Western blot [1]: caspase-1 cleaves TOE1 at residues 363 and 373 as evidenced by the lack of a 17 kDa fragment in the TOE1 mutants containing an alanine at residues 363 and 373
in vitro caspase-1 cleavage of immunoprecipitated mutant, Western blot [2]: two of these mutations were found to prevent the appearance of a cleavage product of TOE1 upon incubation with caspase-1. These consisted of the D195 and D282 residues within the sites GLID and DIHD respectively
in vitro caspase-1 cleavage of immunoprecipitated mutant, Western blot [3]: caspase-1 cleaves TOE1 at residues 363 and 373 as evidenced by the lack of a 17 kDa fragment in the TOE1 mutants containing an alanine at residues 363 and 373
in vitro caspase-1 cleavage of mutant, Western blot [4]: when the caspase-1 cleavage site predicted using the ExPASy software was mutated (FTAD), in vitro cleavage was maintained
in vitro caspase-1 cleavage of immunoprecipitated mutant, Western blot [5]: two of these mutations were found to prevent the appearance of a cleavage product of TOE1 upon incubation with caspase-1. These consisted of the D195 and D282 residues within the sites GLID and DIHD respectively
in vitro digestion of immunoprecipitated TOE1 with recombinant caspase-1, Western blot [6]: We found that TOE1 was indeed processed by caspase-1, and generated multiple cleaved forms
